Measurements published in paper PMC4102529, “FRET Based Quantification and Screening Technology Platform for the Interactions of Leukocyte Function-Associated Antigen-1 (LFA-1) with InterCellular Adhesion Molecule-1 (ICAM-1)” (PLoS ONE, 2014).
Each block holds one substance with its values, some of them ahead of it.

What was measured:
[1] = target: human recombinant ICAM-1 (D1-D2-Fc), Alexa Fluor 555 conjugate (human) (UniProt P05362); assay: FRET or BRET; steady-state, in solution competition screening, 96-well plate; Alexa Fluor 488-LFA-1 (100 nM) mixed with peptide (0.02, 0.2, 2, 20 µM), then incubated with Alexa Fluor 555-D1-D2-Fc (100 nM) for 30 min in the dark; PBS pH 7.4, 1 mM EGTA, 2 mM Mg2+; inhibition efficiency from the FRET efficiency
[2] = target: recombinant human integrin LFA-1 (αLβ2), Alexa Fluor 488 conjugate (human) (UniProt P20701); assay: FRET or BRET; steady-state, in solution, 96-well plate; Alexa Fluor 488-LFA-1 (donor) fixed at 100 nM, Alexa Fluor 555-D1-D2-Fc (acceptor) varied from 0 to 1.6 µM; PBS pH 7.4, 1 mM EGTA, 2 mM Mg2+; fit assuming one-to-one interaction
[3] = target: human recombinant ICAM-1 (D1-D2-Fc), Alexa Fluor 555 conjugate (human) (UniProt P05362); assay: FRET or BRET; steady-state, in solution; emission spectra at 470 nm excitation of mixtures with Alexa Fluor 555-D1-D2-Fc constant at 100 nM and Alexa Fluor 488-LFA-1 at 25-300 nM (A/D 8.40-0.70); incubated 30 minutes at room temperature; FRET efficiency by Eq. (3)

Chain of human recombinant ICAM-1 (D1-D2-Fc), Alexa Fluor 555 conjugate (human) (P05362 28-532): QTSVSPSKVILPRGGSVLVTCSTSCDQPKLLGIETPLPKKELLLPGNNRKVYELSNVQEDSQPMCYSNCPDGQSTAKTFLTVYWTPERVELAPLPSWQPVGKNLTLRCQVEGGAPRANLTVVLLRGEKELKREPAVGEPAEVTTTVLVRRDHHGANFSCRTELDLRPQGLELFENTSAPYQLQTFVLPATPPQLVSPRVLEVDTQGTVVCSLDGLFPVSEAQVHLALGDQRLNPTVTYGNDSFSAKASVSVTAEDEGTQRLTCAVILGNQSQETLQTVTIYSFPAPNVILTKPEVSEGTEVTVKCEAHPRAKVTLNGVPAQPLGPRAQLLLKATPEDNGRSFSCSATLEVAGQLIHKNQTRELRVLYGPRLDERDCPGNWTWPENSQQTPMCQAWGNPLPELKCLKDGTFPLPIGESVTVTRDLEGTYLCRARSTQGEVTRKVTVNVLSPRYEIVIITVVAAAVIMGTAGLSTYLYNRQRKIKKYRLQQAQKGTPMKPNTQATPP
Chain of recombinant human integrin LFA-1 (αLβ2), Alexa Fluor 488 conjugate (human) (P20701 26-1090, chain 1 of 2): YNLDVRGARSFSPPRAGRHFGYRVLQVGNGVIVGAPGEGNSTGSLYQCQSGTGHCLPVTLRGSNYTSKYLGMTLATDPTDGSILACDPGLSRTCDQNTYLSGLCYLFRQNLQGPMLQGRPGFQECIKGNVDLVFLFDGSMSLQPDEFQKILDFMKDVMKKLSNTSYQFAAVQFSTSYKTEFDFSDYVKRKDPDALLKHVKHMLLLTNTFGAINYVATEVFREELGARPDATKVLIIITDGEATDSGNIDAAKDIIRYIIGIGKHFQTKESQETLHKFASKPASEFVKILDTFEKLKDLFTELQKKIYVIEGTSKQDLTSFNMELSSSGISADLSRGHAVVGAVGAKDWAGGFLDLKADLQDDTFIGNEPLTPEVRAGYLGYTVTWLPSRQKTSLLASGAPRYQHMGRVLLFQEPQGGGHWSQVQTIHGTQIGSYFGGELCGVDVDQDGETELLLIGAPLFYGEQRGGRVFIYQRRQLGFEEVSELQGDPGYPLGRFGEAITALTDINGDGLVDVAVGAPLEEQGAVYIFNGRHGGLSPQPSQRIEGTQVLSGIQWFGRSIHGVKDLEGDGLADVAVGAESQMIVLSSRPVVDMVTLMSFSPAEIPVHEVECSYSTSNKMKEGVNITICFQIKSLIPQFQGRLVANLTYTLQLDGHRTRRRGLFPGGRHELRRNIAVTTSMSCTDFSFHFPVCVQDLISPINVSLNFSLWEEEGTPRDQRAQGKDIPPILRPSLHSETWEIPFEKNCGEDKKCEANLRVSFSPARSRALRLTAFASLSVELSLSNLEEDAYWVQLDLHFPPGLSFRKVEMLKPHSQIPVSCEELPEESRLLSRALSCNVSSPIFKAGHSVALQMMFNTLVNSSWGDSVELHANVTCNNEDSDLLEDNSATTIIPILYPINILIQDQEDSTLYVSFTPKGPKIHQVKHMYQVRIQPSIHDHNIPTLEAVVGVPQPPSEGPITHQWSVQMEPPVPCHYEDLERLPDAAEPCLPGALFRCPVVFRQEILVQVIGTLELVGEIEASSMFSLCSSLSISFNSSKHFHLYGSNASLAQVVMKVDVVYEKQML
Chain of recombinant human integrin LFA-1 (αLβ2), Alexa Fluor 488 conjugate (human) (P05107 23-700, chain 2 of 2, further chain): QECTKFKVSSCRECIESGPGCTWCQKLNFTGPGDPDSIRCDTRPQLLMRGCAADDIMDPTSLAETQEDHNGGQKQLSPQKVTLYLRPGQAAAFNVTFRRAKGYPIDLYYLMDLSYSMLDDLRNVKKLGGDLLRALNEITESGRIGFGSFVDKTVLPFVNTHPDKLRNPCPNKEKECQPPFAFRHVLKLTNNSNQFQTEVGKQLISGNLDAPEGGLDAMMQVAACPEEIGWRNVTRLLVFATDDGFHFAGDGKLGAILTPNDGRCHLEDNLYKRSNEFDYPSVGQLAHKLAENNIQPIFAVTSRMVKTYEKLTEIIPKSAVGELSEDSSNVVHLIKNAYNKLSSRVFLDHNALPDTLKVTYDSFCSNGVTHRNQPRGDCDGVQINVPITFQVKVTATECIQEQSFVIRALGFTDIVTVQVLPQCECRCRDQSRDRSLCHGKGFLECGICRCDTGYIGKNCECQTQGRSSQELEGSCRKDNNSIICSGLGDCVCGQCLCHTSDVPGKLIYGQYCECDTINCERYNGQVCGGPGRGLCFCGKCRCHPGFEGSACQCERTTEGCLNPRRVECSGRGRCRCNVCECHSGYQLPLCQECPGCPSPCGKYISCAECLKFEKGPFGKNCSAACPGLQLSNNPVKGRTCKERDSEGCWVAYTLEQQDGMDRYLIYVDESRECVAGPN

inhibition efficiency of the LFA-1/D1-D2-Fc interaction at 0.02 µM peptide [1]: 20.9%
inhibition efficiency of the LFA-1/D1-D2-Fc interaction at 0.2 µM peptide [1]: 37.1%
inhibition efficiency of the LFA-1/D1-D2-Fc interaction at 2 µM peptide [1]: 46.9%
inhibition efficiency of the LFA-1/D1-D2-Fc interaction at 20 µM peptide [1]: 62%
Substance: CD11a(441–465) peptide

Kd [2]: 17.9 nM
Substance: human recombinant ICAM-1 (D1-D2-Fc), Alexa Fluor 555 conjugate (from UniProt P05362 28-532) (Fc fusion)

FRET efficiency (%) at A/D ratio 2.12 (100 nM LFA-1) [3]: 53.5%
Substance: recombinant human integrin LFA-1 (αLβ2), Alexa Fluor 488 conjugate (from UniProt P20701 26-1090; P05107 23-700) (complex)
